One substance from publication PMC5647336 can be followed below.

In the assay the target is Hp-chimMotB (soluble chimeric variant of Helicobacter pylori MotB with the transmembrane helix replaced by a GCN4-derived leucine zipper) (S. cerevisiae | Helicobacter pylori) (UniProt P03069). As to the kind of experiment: SAXS; Hp-chimMotB at 0.05, 0.11 and 0.25 mg/mL in 100 mM sodium acetate pH 4.6, 200 mM NaCl, room temperature; MW from I(0) (Guinier, P(r)) and Porod volume compared with the theoretical dimer mass.

The stoichiometry N is a count of units in the complex or per binding partner. Substance “Hp-chimMotB (soluble chimeric variant of Helicobacter pylori MotB with the transmembrane helix replaced by a GCN4-derived leucine zipper) (from UniProt P03069 249-279; P56427 41-257)” had a stoichiometry N of 2.
